Reference: patent publication US20160046725A1 (PIERRE FABRE MEDICAMENT, published 2016)
Substitutions are numbered along the chain they refer to.

B1: 1024G11 anti-Axl monoclonal antibody (antibody, V domains shown)
VH: EVKLVESGGGLVQPGGSLNLSCAASGFTFSSYSMSWVRQTPEKRLEWVAFISNGGGRTYYPDTVKGRFTFSRDNARNTLYLQMSSLNSEDTAMYFCARGTTESYYAMDYWGQGTSVTVSS
VL: DIVMTQSHKFMSTSVGDRVSITCKASQDVITAVAWYQQKPGQSPKLLIYWASTRHTGVPDRFTGSGSGTDYTLTISSVQAEDLALYFCQQHLSTPLTFGAGTKLELK
notes: Murine monoclonal antibody purified from a hybridoma; a mIgG1 isotype control (9G4) is used beside it; also called monoclonal antibody 1024G11 derived from the hybridoma I-4501
B2: 1003A2 anti-Axl monoclonal antibody (antibody, V domains shown)
VH: B1 VH with N19K, S30N, F50Y, V64I, F70L, A75D, N87K, F95Y, M107L
VL: B1 VL with V15L, V19I, T72N, F87Y, L92F
notes: Murine monoclonal antibody purified from a hybridoma; a mIgG1 isotype control (9G4) is used beside it; also called monoclonal antibody 1003A2 derived from the hybridoma I-4499

Molecular target: T1, recombinant mouse Axl-Fc protein (R and D Systems, cat N° 854-AX/CF) (mouse, UniProt Q00993 19-445)
T1 construct: extracellular domain; Bought construct; also called rmAxl-Fc; murine Axl ECD domain; not shown: Fc portion of the bought fusion (detected by anti-human IgG Fc)
T1 sequence (looked up): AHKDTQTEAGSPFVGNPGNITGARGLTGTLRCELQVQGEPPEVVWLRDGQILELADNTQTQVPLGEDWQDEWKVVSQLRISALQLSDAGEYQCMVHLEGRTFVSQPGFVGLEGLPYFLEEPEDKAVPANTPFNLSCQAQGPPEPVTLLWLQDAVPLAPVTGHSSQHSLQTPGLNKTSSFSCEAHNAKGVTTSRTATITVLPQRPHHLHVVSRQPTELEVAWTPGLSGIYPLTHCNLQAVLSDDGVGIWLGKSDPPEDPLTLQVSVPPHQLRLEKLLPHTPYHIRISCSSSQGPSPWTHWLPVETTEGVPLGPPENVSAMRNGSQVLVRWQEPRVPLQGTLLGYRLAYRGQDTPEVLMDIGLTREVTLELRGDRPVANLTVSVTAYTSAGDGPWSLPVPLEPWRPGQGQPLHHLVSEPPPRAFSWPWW
Test: ELISA on coated rmAxl-Fc
Procedure: Briefly, the recombinant mouse Axl-Fc (R and D Systems, cat N° 854-AX/CF) proteins were coated overnight at 4° C. to Immulon II 96-well plates and, after a 1 h blocking step with a 0.5% gelatine solution, the 110D7, 1003A2, 1024G11, purified antibodies, respectively, were added for an additional 1 h at 37° C. at starting concentration of 5 μg/ml (3.33 10⁻⁸ M). Then ½ serial dilutions were done over 12 columns. Then plates were washed and a goat anti-mouse (Jackson) specific IgG HRP was added for 1 h at 37° C. Reaction development was performed using the TMB substrate solution. The commercial mouse anti-Axl Mab 154 antibody is also used in parallel. Coating controls are performed in presence of a goat anti-human IgG Fc polyclonal serum coupled with HRP (Jackson, ref 109-035-098) and in presence of a HRP-coupled anti-Histidine antibody (R and D Systems, ref: MAB050H). No specific binding is observed in absence of primary antibody (diluant).

Binder | binding result
B1 | no binding
B2 | no binding
